Assay results as given in patent US20030134779A1, “Method and composition for treatment and/or prevention of antibiotic-resistant microorganism infections” (priority 2002, published 2003).

Legend:
Format in all cases: cell-based, Staphylococcus aureus
S. aureus SHY97-3906 = assay: Checkerboard MICs and FIC index, penicillin with bovine LF
Method: (§1) The MICs were determined by both macrodilution (1 ml/tube) and microdilution (100 μl/well) in sterile 96 well microtiter plates (International Nunc, Napierville, Ill.) techniques in three separate experiments according to the National Committee for Clinical Laboratory Standards (1992 and 1999) in three separate experiments. Serial 2-fold dilutions in MHB of LF, LFC, antibiotic or combination of LF or LFC with antibiotic were inoculated with an overnight culture at a final inoculum of 10^6 cfu/ml in MHB. Effect of LF combination with antibiotic on MICs were determined by adding 0.5 mg or 1 mg/ml of LF to each antibiotic dilution. The MIC was defined as the lowest concentration of drug (highest dilution) that caused a complete inhibition of bacterial growth after an incubation of 18 h. Effect of LF or LFC combination with antibiotic on MIC was also determined by checkerboard method using 96 well microtiter plates. Each antibiotic dilution (50 μl) was serially added to the wells in vertical rows starting from the top (lower dilution) to the bottom. Lactoferrin or LFC (50 μl) were added to 50 μl of each antibiotic dilution and serially diluted starting at the left (lower dilution) to the right. After inoculation, the final concentration of antibiotic from top to bottom were 32 to 8, 2 to 0.5, 0.5 to 0.125 μg/ml for penicillin, cefazolin and neomycin, respectively. From left to right, the concentration of LF or LFC were 25 to 0.0244 mg/ml or 256 to 0.5 μg/ml respectively in a final volume of 100 μl/well. The microplate's were incubated at 37° C. for 24 h. Bacterial growth was measured optically at 540 nm using Spectra Max 250 Microplate Spectrophotometer System of Molecular Device (Fisher Scientific, Ottawa, Canada). Tubes were incubated at 37° C. for 18 h and bacterial growth was measured by visual examination and optically at 540 nm using a spectrophotometer (Philips PU 8800; Pye Unican Ltd, Cambridge, UK). The fractional inhibitory concentration (FIC) was calculated as described by Eliopoulos and Moellering (1991).
(§2) FIC antibiotic A=MICantibiotic A (in the presence of antibiotic B)/MICantibiotic A alone. FIC Index=FICantibiotic A+FICantibiotic B
(§3) The effects of the antibiotics were considered to be synergistic or indifferent when FIC Index was<1 or>1, respectively.

S. aureus PC-1 = assay: as above
Method: as §1, §2, §3

S. aureus ATCC 25923 = assay: as above
Method: as §1, §2, §3

S. aureus SHY97-4320 = assay: as above
Method: as §1, §2, §3

[1] = system: β-lactamase (BlaZ) gene expression in S. aureus strain SHY97-4320; assay: BlaZ gene expression, real-time quantitative RT-PCR, and total RNA
Method: Fresh MHB containing or not 8 μg/ml of penicillin G and/or 1 mg/ml of bovine LF (2×2 factorial design) was adjusted to an optical density at 540 nm of 0.04 with an overnight culture of S. aureus and then incubated at 37° C. with agitation (150 rpm). After 4 and 22-h of incubation, aliquots were removed to determine bacterial growth by viable count (colony forming unit per ml, cfu/ml), measuring the culture turbidity (OD540nm) with a spectrophotometer Philips PU and to measure β-lactamase activity in bacterial cells. Following culture under the same condition, bacterial cells were collected for RNA extraction.
Total bacterial RNA was prepared using the RNeasy minikit (Qiagen, Mississauga, ON, Canada). Washed bacteria were first treated with 50 μg/ml of lysostaphin (GramCracker, Ambion, Austin, Tex.) for 10 min at 37° C. and RNA was purified according to the manufacturer's protocol. Contaminating DNA was removed from total RNA by using 1 U of Rnase-free Dnase I (Gibco Life Technologies, Grand Island, N.Y.) in a 10 μl reaction mixture containing approximately 50 ng of total RNA per μl and 20mM Tris-HCl (pH 8.4), 2 mM MgCl2 and 50 mM KCl. The reaction mixture was incubated for 15 min at room temperature, and the Dnase I was inactivated by adding 1 μl of 25 mM EDTA to the mixture and incubating for 10 min at 65° C. before assessing quantity and purity. Amount of cellular RNA was then determined by measuring the OD260 nm and OD280 nm.
Real-Time fluorescence-based 5′ nuclease PCR which is a widely accepted method for measuring gene expression levels was used to quantify β-lactamase BlaZ RNA by RT-PCR on ABI Prism™ 7700 (TaqMan® ) sequence detector (PE Applied Biosystem, Foster City, Calif.). The forward primer, reverse.primer, and TaqMan probe for Real-Time RT-PCR amplification were designed with the PrimerExpress software (PE Applied Biosystem) to specifically amplify the. S. aureus BLAZ gene. Briefly, RNA (50 ng) was added to a 50 μl reaction mixture containing 25 μl of 2×RT-PCR One-Step Universal Master Mix, 1.25 μl of 40×MultiScribe and Rnase Inhibitor Mix, 4.5 μl of the forward primer (10 μM, 5′-[…]-3′, SEQ ID NO:3), 4.5 μl of the reverse primer (10 μM, 5′-[…]-3′, SEQ ID NO:4), and 1.25 μl of TaqMan probe (10 μM, 6FAM-[…]-TAMRA, SEQ ID NO:5). Reverse transcription with the recombinant Moloney Murine Leukemia Virus (M-MuLV) Reverse Transcriptase (0.25 U/μl) was conducted at 48° C. for 30 min. After initial activation of AmpliTaq Gold DNA polymerase (1.25 U/μl) at 95° C. for 10 min, 40 PCR cycles of 95° C. for 15 s and 60° C. for 1 min were performed. The cycle threshold value (CT), indicative of the quantity of target gene at which the fluorescence exceeds a pre-set threshold, was determined and compared to the CT of a standard curve containing known amounts of mRNA (1.1×10^2 to 1.1×10^9) from the BLAZ gene of S. aureus obtained by in vitro transcription. Statistical analysis were done on the LOG 10 of number of copies.

[2] = in combination with penicillin, checkerboard

B1: LF: bovine lactoferrin, 80-kDa iron-binding glycoprotein found in milk (protein, UniProt P24627 20-708, looked up)
Lactotransferrin: APRKNVRWCTISQPEWFKCRRWQWRMKKLGAPSITCVRRAFALECIRAIAEKKADAVTLDGGMVFEAGRDPYKLRPVAAEIYGTKESPQTHYYAVAVVKKGSNFQLDQLQGRKSCHTGLGRSAGWIIPMGILRPYLSWTESLEPLQGAVAKFFSASCVPCIDRQAYPNLCQLCKGEGENQCACSSREPYFGYSGAFKCLQDGAGDVAFVKETTVFENLPEKADRDQYELLCLNNSRAPVDAFKECHLAQVPSHAVVARSVDGKEDLIWKLLSKAQEKFGKNKSRSFQLFGSPPGQRDLLFKDSALGFLRIPSKVDSALYLGSRYLTTLKNLRETAEEVKARYTRVVWCAVGPEEQKKCQQWSQQSGQNVTCATASTTDDCIVLVLKGEADALNLDGGYIYTAGKCGLVPVLAENRKSSKHSSLDCVLRPTEGYLAVAVVKKANEGLTWNSLKDKKSCHTAVDRTAGWNIPMGLIVNQTGSCAFDEFFSQSCAPGADPKSRLCALCAGDDQGLDKCVPNSKEKYYGYTGAFRCLAEDVGDVAFVKNDTVWENTNGESTADWAKNLNREDFRLLCLDGTRKPVTEAQSCHLAVAPNHAVVSRSDRAAHVKQVLLHQQALFGKNGKNCPDKFCLFKSETKNLLFNDNTECLAKLGGRPTYEEYLGTEYVTAIANLKKCSTSPLLEACAFLTR
Decrease (of MIC of LF) (S. aureus SHY97-3906; by combination with penicillin): 16 fold | MIC LF (S. aureus SHY97-3906; [2]): 1560 µg/mL | Decrease (of MIC of LF) (S. aureus PC-1; by combination with penicillin): 64 fold | MIC LF (S. aureus PC-1; [2]): 390 µg/mL | Decrease (of MIC of LF) (S. aureus ATCC 25923; by combination with penicillin): 32 fold | MIC LF (S. aureus ATCC 25923; [2]): 780 µg/mL | Decrease (of MIC of LF) (S. aureus SHY97-4320; by combination with penicillin): 64 fold | MIC LF (S. aureus SHY97-4320; [2]): 390 µg/mL | BlaZ total: total number of copies of BlaZ gene mRNA/ml of culture ([1]; LF 1 mg/ml and/or penicillin G): 5.6 × 10^5 copies/ml of culture | BlaZ: number of copies of BlaZ gene mRNA/50 ng of mRNA ([1]; LF 1 mg/ml and/or penicillin G): 1.4 × 10^4 copies/50 ng of mRNA | reduction of the mRNA level in bacteria ([1]; LF, P<0.001): 35% | RNA ([1]; adjusted for an OD540nm of 1.0, LF 1 mg/ml and/or penicillin G): 1.88 ± 0.68 :g/ml | penicillin G-induced increase of BlaZ mRNA ([1]; simultaneous addition of 1 mg/ml of LF): completely prevented
